Data published in US20240317834A1, “COMPOSITIONS AND METHODS FOR NEUROLOGICAL DISEASES” (CODA BIOTHERAPEUTICS, INC., priority 2020, published 2024).
“Also recorded” adds a separate entry of the source.

Legend:
Format in all cases: cell-based
[1] = tested on: HEK293T cells; assay: High throughput electrophysiology (IonFlux automated patch clamp), EC50 of engineered receptors to ligands
Description: To confirm the EC50s determined by plate reader as well as develop a better understanding of maximum current flow, the engineered receptors were subjected to high throughput electrophysiology system, as described below. For HEK293T studies, cDNAs encoding ion channels were cloned into pcDNA3.1 using standard recombination techniques. HEK293T cells from Clontech (Lenti-X™ 293T Cell Line) were cultured in DMEM supplemented with 10% FBS and 1% Pen/Strep to 40-50% confluence using standard cell culture protocols, transfected with ion channel plasmids at a concentration of 18 μg per 15 cm dish using Fugene 6, and grown for an additional 24 hours. Cells were then assayed on an electrophysiological system (IonFluxHT and/or Mercury, Fluxion Biosciences) in which dose-response relationships may be assessed through a microfluidics-based platform for establishing whole cell configurations. Ensemble plates were primed with extracellular buffer (140 mM NaCl, 5 mM KCl, 2 mM CaCl2), 1 mM MgCl2, 10 mM HEPES, and 10 mM glucose, pH 7.2 with NaOH, mOsm 310), intracellular buffer (145 mM CsCl, 2 mM CaCl2), 2 mM MgCl2, 10 mM HEPES, and 10 mM EGTA, pH 7.2 with CsOH, mOsm 305), as adapted from Lynagh and Lynch, and test compounds (stocks prepared fresh) diluted in extracellular buffer. Cells were then released from the plate with Accutase, centrifuged, resuspended in extracellular buffer, and loaded into Ensemble plates. Cells were then subjected to a standard protocol for priming, trapping, breaking, and establishing whole cell configuration, with cells held at −60 mV throughout the recording. After recording baseline, progressive doses of test compounds were applied using the IonFlux software to assess dose response relationships. Data were then analyzed off-line using custom Python scripts to convert data to .csv format, re-plot traces, and apply QC measurements to reject unstable recordings (i.e. thresholding based on access resistance and/or standard deviation in baseline, as well as artifact rejection). Peak currents were then calculated, and population data were fit using a 4-parameter logistic equation as described by the Hill Equation. Currents were measured on an automated patch clamp system (Fluxion Biosciences) following 1 second addition of drug and the EC50 values calculated are tabulated below in Table 22 below and Table 21 above (in Example 2).

[2] = tested on: HEK293 cells; assay: Whole cell manual patch clamp electrophysiology, ligand-induced currents and EC50 in HEK293 cells
Description: (§1) Using whole cell manual patch clamp electrophysiology in HEK293 cells, rat DRG neurons and rat hippocampal neurons, the EC50 of the various engineered receptors disclosed herein to Ach and non-native ligands was measured using the Hill equation with peak current measurements from escalating doses of ligand. The rheobase shift was also measured in rat DRG neurons, which reflects the efficacy of the receptors. To calculate the rheobase, first, the amount of current that can produce an action potential was determined. Then the ligand was added, followed by a step wise increase in the current injected up to 700 pA.
For manual patch clamp experiments, Cells plated on coverslips were visualized at 10× and 40× on an inverted fluorescence microscope (Olympus). Recordings were made with an Axopatch 200B amplifier and Digidata 1550B (Molecular Devices) at RT using 3-6 MOhm glass patch electrodes (Sutter, BF150-86-10). Unless otherwise stated, recordings were made in extracellular solution (ECS) containing: 140 mM sodium chloride, 4 mM potassium chloride, 1 mM magnesium chloride, 2 mM calcium chloride, 10 mM HEPES, and 10 mM D-(+)-glucose (pH=7.3 with sodium hydroxide, osmolarity=305−315 mOsm). […] Traces were either analyzed in Clampfit (Molecular Devices) or using custom Python code. […]
For dose-response, ligand-induced currents were recorded in voltage clamp mode. […]

[3] = tested on: rat DRG neurons; assay: Whole cell manual patch clamp electrophysiology, ligand-induced currents and EC50 in rat DRG neurons
Description: as §1
For manual patch clamp experiments, Cells plated on coverslips were visualized at 10× and 40× on an inverted fluorescence microscope (Olympus). Recordings were made with an Axopatch 200B amplifier and Digidata 1550B (Molecular Devices) at RT using 3-6 MOhm glass patch electrodes (Sutter, BF150-86-10). Unless otherwise stated, recordings were made in extracellular solution (ECS) containing: 140 mM sodium chloride, 4 mM potassium chloride, 1 mM magnesium chloride, 2 mM calcium chloride, 10 mM HEPES, and 10 mM D-(+)-glucose (pH=7.3 with sodium hydroxide, osmolarity=305−315 mOsm). An 8-line reservoir (AutoMate Scientific) in combination with an 8-channel zero-dead-volume perfusion pencil (AutoMate Scientific) was used for perfusion. Data was acquired using pClamp software (Molecular Devices). Traces were either analyzed in Clampfit (Molecular Devices) or using custom Python code. Plotting and statistics were performed in GraphPad Prism.
For dose-response, ligand-induced currents were recorded in voltage clamp mode. For HEK cell experiments, recordings took place in the normal ECS with a cesium-based internal solution containing: 140 mM cesium chloride, 5 mM potassium fluoride, 2 mM Calcium chloride, 2 mM magnesium chloride, 10 mM HEPES, and 10 mM EGTA (pH=7.2 with cesium hydroxide, osmolarity=290-295 mOsm). […]

[4] = tested on: rat DRG neurons; assay: Rheobase shift and evoked action potentials in rat DRG neurons (current clamp)
In short: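 Rat DRG neurons expressing engineered receptors, whole-cell current clamp at RT. ECS at pH 7.3; K-gluconate internal at pH 7.2. 500 ms steps from −200 to 700 pA with and without ligand. Rheobase taken as the smallest depolarising step that fires an action potential; input resistance from negative steps.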

B1: CODA806: engineered chimeric LGIC receptor, Y115D, L131Q in SEQ ID NO: 33 (protein)
chain: MRCSPGGVWLALAASLLHVSLQGEFQRKLYKELVKNYNPLERPVANDSQPLTVYFSLSLLQIMDVDEKNQVLTTNIWLQMSWTDHYLQWNVSEYPGVKTVRFPDGQIWKPDILLDNSADERFDATFHTNVQVNSSGHCQYLPPGIFKSSCPMDLKNFPMDVQTCKLKFGSWSYGGWSLDLQMQEADISGYIPNGEWDLVGIPGKRSERFYECCKEPYPDVTFTVTMRRRMGYYLIQMYIPSLLIVILSWISFWINMDAAPARVGLGITTVLTMTTQSSGSRASLPKVSYVKAIDIWMAVCLLFVFSALLEYAAVNFVSRQHKELLRFRRKRRHHKSPMLNLFQEDEAGEGRFNFSAYGMGPACLQAKDGISVKGANNSNTTNPPPAPSKSPEEMRKLFIQRAKKIDKISRIGFPMAFLIFNMFYWIIYKIVRREDVHNQ
modifications: synthetic sequence of chimeric LGIC
- fold increased potency towards RG-3487 compared with wild type receptor ([1]; ligand RG-3487): over 10 fold
- fold reduced potency to acetylcholine compared with wild type receptor ([1]; ligand acetylcholine): over 500 fold
- sensitivity to RG-3487 compared with wildtype nAchRa7 receptor [2]: way more sensitive
- sensitivity to acetylcholine, current generated ([2]; Ach up to 100 mM, compared with wildtype nAchRa7 receptor, listed as Y115D and L131Q in SEQ ID NO: 33): essentially insensitive; also recorded: almost no current could be generated
- chloride current on application of RG-3487 (SA-2) ([3]; cultured adult rat DRG neurons expressing the receptor, not observed in non-transduced cells): generated chloride current in a dose dependent manner
- sensitivity to RG-3487 compared with wildtype nAchRa7 receptor ([3]; cultured rat DRG sensory neurons): way more sensitive
- sensitivity to acetylcholine ([3]; cultured rat DRG sensory neurons, compared with wildtype nAchRa7 receptor): essentially insensitive
- Rheobase Shift; Rat DRG Neurons, Baseline ([4]; Baseline, no ligand): 163 ± 28 pA
- Rheobase Shift; Rat DRG Neurons, Facinicline/RG-3487 @ EC90 ([4]; Facinicline/RG-3487 @ EC90): 625 ± 35 pA
- effect on current injection evoked action potentials ([4]; RG-3487 (SA-2) 3 μM, transduced rat DRG neurons): reversibly inhibits
- increase in the current required to elicit action potentials (rheobase) ([4]; RG-3487 (SA-2) 3 μM, transduced rat DRG neurons, n=7): ~3 ×
- effect on evoked action potentials ([4]; acetylcholine 3.0 mM, transduced rat DRG neurons, n=4): no effect
